Data from a protein production outcome set (Wang et al. 2014).

Assay: label from the status in PepcDB records

With “MKEIVERVKTKTKIPVYERSVENVLSAVLASDDIWRIVDLSEEPLPLVVAILESLNELGYVTFEDGVKLTEKGEELVAEYGIGKRYDFTCPHCQGKTVDLQAFADLLEQFREIVKDRPEPLHEFDQAYVTPETTVARVILMHTRGDLENKDIFVLGDDDLTSIALMLSGLPKRIAVLDIDERLTKFIEKAANEIGYEDIEIFTFDLRKPLPDYALHKFDTFITDPPETLEAIRAFVGRGIATLKGPRCAGYFGITRRESSLDKWREIQKLLLNEFNVVITDIIRNFNEYVNWGYAEETRAWKLIPIKKLPEYNWYKSYMFRIETLEGSRGYEDEIPEEDIYNDEESSTT” the protein production was “not failed”.
In the case of “MKEKVVLAYSGGLDTSVILKWLCEKGFDVIAYVANVGQKDDFVAIKEKALKTGASKVYVEDLRREFVTDYIFTALLGNAMYEGRYLLGTAIARPLIAKRQVEIAEKEGAQYVAHGATGKGNDQVRFELTYAALNPNLKVISPWKDPEFLAKFKGRTDLINYAMEKGIPIKVSKKRPYSEDENLMHISHEAGKLEDPAHIPDEDVFTWTVSPKDAPDEETLLEIHFENGIPVKVVNLKDGTEKTDPLELFEYLNEVGAKNGVGRLDMVENRFIGIKSRGVYETPGATILWIAHRDLEGITMDKEVMHLRDMLAPKFAELIYNGFWFSPEMEFLLAAFRKAQENVTGKVTVSIYKGNVMPVARYSPYSLYNPELSSMDVEGGFDATDSKGFINIHALRLKVHQLVKKGYQR”, the protein production is reported as “not failed”.
With “MKENDGAPLKEGETASKYSVIINMILVVIKGFTGYLSGNIALIADAIHSFADVFSSAAVFIGLKLSQRKPDELFPYGYHRIETLVSLLVSVLIIITGLEITWDSIIYILNPASEVSMATASLAVSLISIGVSYAIAFYKVRVGRRIGSTALLNDGKHSYVDVISSILVFLGILGEYMGLHGFQGIAGVIISVVIIYIGIRLAKYDVLTLLDACIDRDSIEVIKKTVLSVPGVEGVHDIRIRRSGPYLFGELHIELERGLPVDKIEGIISQINSRVKEVLPSIDHLTVQPETVKREEVVVAVPLADNHGMESRISTHFGRADSFLIARTRRGEILDYRIIENSGKSLRTKRGIRAAELLKDENIDVLVIEKLSEGPELLFSDYLLGKVPPEGSSLEEVIKNASMKFSE” the protein production was “failed”.
In the case of “MKENKLDYIPEPMDLSLVDLPESLIQLSERIAENVHEVWAKARIDEGWTYGEKRDDIHKKHPCLVPYDELPEEEKEYDRNTAMNTIKMVKKLGFRIEKED”, the protein production is reported as “not failed”.
In the case of “MKEVSAAPKITNVKAAILGFQHLLAMYSGDVLVPLLIGAALHFSQEQLTYLVSIDIFMCGIATFLQLKRTPLTGIGLPVVLGCAVQAVNPLIQIGKTYGLGTMYGSIIGAGIFIFLIAGLFSKIKNLFPPVVTGSLITIIGFTLIPVAFQNLGGGDTSAKDFGNLQALGIGFLTIAIILLISVFARGFMKSVSILIGILVGTLIAGAMGMVSLKPVAEASWFHLPTLFYFGTPHFEWSSILTMILVSLTTMVESTGVFFALGDITGRKIEGDDLKRGYRAEGIAVILGGLFSTFPYSTFSENVGVVQLSGVKTRKPIYFSAAFLVVLGLLPKIGALATIIPDPVLGGAMVVMFGIVGIQGIRMLAQVDFRNNNNLLVAAVSIGLGLGVTVQTNIFQFLPGALQIMLSNGVVVGSVAAVGLNLLFNRHAAENTVDDESVGLNETEQP”, the protein production is reported as “failed”.
For “MKFIIEALKRVRERRPLVHNITNFVVMNTTANALLALGASPVMAHAEEELEEMIRLADAVVINIGTLDSGWRRSMVKATEIANELGKPIVLDPVGAGATKFRTRVSLEILSRGVDVLKGNFGEISALLGEEGKTRGVDSLEYGEEEAKKLTMNAAREFNTTVAVTGAVDYVSDGRRTFAVYNGHELLGRVTGTGCMVAALTGAFVAVTEPLKATTSALVTFGIAAEKAYEEAKYPGSFHVKLYDWLYRINENVIRTYAKVREVEL”, the protein production was “not failed”.
For “MKFKIHSDITYQVMSPTTFIFNVHALRTESQHILDESLIVTPPIEIEEFSYNSGTSRFVRLKATENTTFSMSYTATVDTQYKVIDQRQELETVPVVDLDGDIIPFLFPSRYCQSDKLQKLAYKEFGKIENVYSKVLAITDWIYNNVEYISGSTNSQTSAFDTITERAGVCRDFAHLGIALCRALSIPARYFTGYAFKLNPPDFHACFEAYIGGNWIIFDATRLVPLNGLVKIATGRDAADAAVASIFGNASSTNMHVECASLDTDFTPFWYDKNSLKGLSFQ”, the protein production was “not failed”.
With “MKFLPYIFLLCCGLWSTISFADEDYIEYRGISSNNRVTLDPLRLSNKELRWLASKKNLVIAVHKSQTATLLHTDSQQRVRGINADYLNLLKRALNIKLTLREYADHQKAMDALAEGEVDIVLSHLVTSPPLNNDIAATKPLIITFPALVTTFHDSMRPLTSPKPVNIARVANYPPDEVIHQSFPKATIISFTNLYQALASVSAGHNDYFIGSNIITSSMISRYFTHSLNVVKYYNSPRQYNPLLTRKESVILNEVLNRFVDALTNEVRYEVSQNRLDTGNLAFLNKPLELTEHEKQWIKQHPNLKVLENPYSPPYSMTDENGSVRGVMGDILNIITLQTGLNFSPITVSHNIHAGTQLSPGGWDIIPGAIYSEDRENNVLFAEAFITTPYVFVMQKAPDSEQTLKKGMKVAIPYYYELHFELKEMYPEVEWIQVDNASAAFHKVKEGELDALVATQLNSRYMIDHYYPNELYHFLIPGVPNASLSFAFPRGEPELKDIINKALNAIPPSEVLRLTEKWIKMPNVTIDTWDLYSEQFYIVTTLSVLLVGSSLLWGFYLLRSVRRRKVIQGDLENQISFRKALSDSLPNPTYVVNWQGNVISHNSAFEHYFTADYYKNAMLPLENSDSPFKDVFSNAHEVTAETKENRTIYTQVFEIDNGIEKRCINHWHTLCNLPASDNAVYICGWQDITETRDLINALEVEKNKAIKATVAKSQFLATMSHEIRTPISSIMGFLELLSDSGLSKEQRVEAISLAYATKQSVLGLIGEILDVDKIESGNYQLQPQWVDIPTLVQNTCHSFGAIAASKSIALSCSSTFPEHYLVKIDPQAFKQVLSNLLSNALKFTTEGAVKITTSLGHIDDNHAVIKMTIMDSGSGLLQEEQQQLFKRYSQTSAGRQQTGSGLGLMICKELIKNMQGDLSLESHPGIGTTFTITIPVEISQQVATVEAKAEQPITLPEKLSILIADDHPTNRLLLKRQLNLLGYDVDEATDGVQALHKVSMQHYDLLITDVNMPNMDGFELTRKLREQNSSLPIWGLTANAQANEHEKGLSCGMNLCLFKPLTLDVLKTHLSQLYQVAHIAPQYRHLDIEALKNNTANDLQLMQEILMTFQHETHKDLPAAFQALEAGDNRTFHQCIHRIHGAANILNLQKLINISHQLEITPVSDDSKPEILQLLNSVKEHIAELDQEIAVFCQKND” the protein production was “failed”.
In the case of “MKFLTVSDDMNFLRQVNTLVAGKGDMDSVIIGEGDAKGLGSKVLYRAKKGTPFDAVSEGILKIAGNYDYIAIGSTEVGREIAGYLSFKTGFYTATEIFSLEFNGQKAHTKRFFYGGKTVIEEESDARILTVAPGVIEAKDLGTTPEIRDLEIGQSRIKITKFVSKAGGSVRLEDAKVIVSVGRGIGSKENIAKIEPLAKALNGEIAGSRPVCMDYGWLSEDRQVGLSGKKVSPKVYIALGISGQIQHIAGMRNSKTVIAINKDKNAPIFQECDYGIVGDLFTVVPKILEQLKQ”, the protein production is reported as “failed”.
In the case of “MKFVKASLYLSIALAISACGEQVSVESHLENAKSYLNENKVNESIIELKNAIRADTKNAEARFLLGQIYLSLGDGLAAVKELERAQSLKYPDNKVLPLLARAYILTDSDSDVIALSTAAKGLAAEERSQYLAYQTLAALRSEQPDLAKQSVELAQSIAQQSLYSMLASAYLQLSENKYDEVKTLISRILTIEAKQVDALMLQGQVAMVTEEYQLAVDSFKQYMELQPRFSMVELLLANALLKAGHDEEAEQHADAILAKVNNQPFANYIKAMVRFQAKDFDKASEHAEAALSADFNQFNLKLVAGASAFYLKNWQQSYHHLSAIVKYLPNDHQARRMLAVTQLELGLIDEISATIGDFDGNDEVNSQFLSSLSYKLLELGATTEAKKLLAQNGQNSSKNAAHNARQGILKLMMNDPSGIENLQDAVKLNPELIEAELAIAFSALQRGDIAKANAIAEKWQKQYPDKASSFNLLASIAIKEGKYDKAEQALKKSLSLEQDNFFALTEQLRIARKQENIPLSKQRADYLITIAPTNNKVLRQYFGVYRNEMALAKLTAAYELDKTDINKAILLSEAMVSLGQLKQAESILVSIADTAKLPKRYWQLLLLTYKKQKNFEKIRPTLEKWLKENPYHIEAVVLLTDFYASQRNYERALTVIKRGLDNHKDNLVLQLVQMQLLLNNKQISPAKSLYKIIENKNINDALKQGLLGRIYLLEEDYVQALPKLTVFYQTYPSSQNAIYLAGAHLGNKDNAKAVKVLEHYLTIDANNNRIETMLAGIYLENDSDKAIAVYDDVVKKQPKNVVAHNNLAWLYLEQDNISKALEHAEKALELAPQIANIVDTYAKVLLGSGDKRAALQYASKASEIAKGKDVDIQLNYVEALIANNRINEAKDLLAKVATATDEQKNKKSKLLAQL”, the protein production is reported as “failed”.
In the case of “MKGKILDYSVQTNTAIIRTEDQKHYSFLGSAWREWIVPMPGMHVYFELDAQGEVTEVFIDVPEEDTPIAKPILTPVKAFITAPLMVDMQDKQHHTMLEKEAHYCMIDWVIKCFKNALDFKGRARRQEFWSFQFFYTVLGVGMLAFGHFLDLGHTLFIVSSIFMLLPALAVSVRRLHDINRSGWLLLINLVPIVGVLIVIFFFMTEEGDSRANAFGPPSK”, the protein production is reported as “failed”.
For “MKGLKALILVILVLGLVVGSVAAAPEKKVEQVRNVEKNYGLLTPGLFRKIQKLNPNEEISTVIVFENHREKEIAVRVLELMGAKVRYVYHIIPAIAADLKVRDLLVISGLTGGKAKLSGVRFIQEDYKVTVSAELEGLDESAAQVMATYVWNLGYDGSGITIGIIDTGIDASHPDLQGKVIGWVDFVNGRSYPYDDHGHGTHVASIAAGTGAASNGKYKGMAPGAKLAGIKVLGADGSGSISTIIKGVEWAVDNKDKYGIKVINLSLGSSQSSDGTDALSQAVNAAWDAGLVVVVAAGNSGPNKYTIGSPAAASKVITVGAVDKYDVITSFSSRGPTADGRLKPEVVAPGNWIIAARASGTSMGQPINDYYTAAPGTSMATPHVAGIAALLLQAHPSWTPDKVKTALIETADIVKPDEIADIAYGAGRVNAYKAINYDNYAKLVFTGYVANKGSQTHQFVISGASFVTATLYWDNANSDLDLYLYDPNGNQVDYSYTAYYGFEKVGYYNPTDGTWTIKVVSYSGSANYQVDVVSDGSLSQPGSSPSPQPEPTVDAKTFQGSVHYYYDRSDTFTMTVNSGATKITGDLVFDTSYHDLDLYLYDPNQKLVDRSESSNSYEHVEYLNPAPGTWYFLVYAYYTYGWAYYELTAKVYYG”, the protein production was “failed”.
For “MKGREMKIVEFMKDKMVYIVFTLIFSSIYAGVHHRSIFLSLKVTLPIALFMMLFQPMVFMDIKKAFTTRTRVKTKYLILLTFFYTLLFPVLTWIFLKFWLRMMPNTEPQLLAGMVLIGLAPLPSSSPAFTNLAGGRFQLTLVGVMWTFLLSIFVMPFYAKLILHTIIQVPIEMLLKSLILYIITPLIIGQLTKYIILHWKGTDALISLKKPLIGISLIGMYWMIVVVFGINAKVIVERPELILIGAITMNIYFLLRAAIAYFIGKALDFPFEQNISLVYSTGSNMTLATAMAIGTFGPLAAVGTALGGPFSDMLLMIFFVKLFTLIRKKYIHNERKSITGG”, the protein production was “failed”.
With “MKGRSGDVNINTNAISTPARVLIYSTAAVLLTIGMKAISSILMPIFFSIFSYLIFAPLVRWLMRKRVPGKISVVLVILVFIFVFVGTTLLFANSLLQLSGRIPNYENQLTSILNSISIYLPEAGVSVESVLRDIAAFAFNVSGDIISGALNAGSTIALIVITTTFLLLDSAGAPVKMQKEGENQPVHISQYTELSRTVINYMLLRTETNLLGGIGTAILLLAGGIDFAVLWGLLFFLFGYIPYLGFYLAAIPPMLLGLFEYGLIGAVGVLVGITIINALVENVIFPSLAGKGLKLSPTLVFLSLFYWSFVLGAAGALIAVPLTIVVKIILESSEETRMIAKLMESSGTRDLDEKSTEENISE” the protein production was “failed”.
